{"source": "patent US20210196806A1", "target": "CD8+ T cells among expanded tumor infiltrating lymphocytes (TIL) of a lung adenocarcinoma patient (H)", "test": "flow cytometry, tetramer staining of expanded TILs of one patient", "data": [{"substance": "KRAS-G12V/HLA-A*11:01 tetramer (from UniProt P61769 21-119) (peptide-MHC)", "values": [{"measurement": "percent of CD8+ T cells binding the tetramer", "value": "> 66", "unit": "%"}]}]}
